Assay results as given in patent publication US20240043859A1, “HERBICIDE-RESISTANT PROTEIN, AND GENE AND USE THEREOF” (QINGDAO KINGAGROOT CHEMICAL COMPOUND CO., LTD., priority 2020, published 2024).
“Also recorded” adds a separate entry of the source.

Columns and labels:
[1] = Chromogenic reaction of degrading herbicides in bacteria: triclopyr; assay type: cell-based, Escherichia coli; conditions: recombinant E. coli expressing the gene
soybean William82 = assay: Spray testing of transgenic soybean T1 seedlings; assay type: in vivo; conditions: 2,4-D 4.48 kg/ha foliage spray, 10 days after spraying
Source text: 1. Vector construction: the pQY2330 vector (see FIG. 8-1) was used as the overexpression vector, containing a Bar resistance gene that can be used as a selection marker for glufosinate. The AAD-like gene, QYD42, SEQ ID NO. 83, was linked to the Xho I restriction site by seamless cloning to construct the transgenic expression vector pQY2330, of which the expression cassette consisted of a double CaMV35S promoter, the AAD-like gene QYD42 and a […] Nos terminator.
2. Genetic transformation of soybeans: Soybean transformation was carried out using the Agrobacterium-mediated cotyledon nodes transformation method (Pareddy D, Chennareddy S, Anthony G, et al. Improved soybean transformation for efficient and high throughput transgenic production[J]. Transgenic Research, 2020, 29(968)). A monoclone of the Agrobacterium (EHA105) comprising the overexpression vector pQY2330 was inoculated into 5 ml YEP liquid medium (containing 25 mg/L Rifampicin and 50 mg/L Kanamycin) and shaking-cultured at 220 rmp/min, 28° C. for 8 hours. And then 0.2-0.3 ml bacteria solution was transferred to 200 ml YEP liquid medium (containing 25 mg/L Rifampicin and 50 mg/L Kanamycin) and shaking-cultured at 220 rmp/min, 28° C. overnight until the bacteria reached the exponential growth stage, then centrifuged at 4000 rmp/min for 20 min to collect the cells into a 50 ml centrifuge tube (sterilized). […]

Arabidopsis thaliana = assay: Herbicide resistance of transgenic Arabidopsis thaliana seedlings on plate medium (root growth); assay type: in vivo; conditions: plate medium with 2,4-D (0.3 μmol)

B1: QYD42: AAD-like enzyme, SEQ ID NO. 83; expressed from vectors pQY2309 (Arabidopsis), pQY2329 (maize), pQY2330 (soybean) (protein)
chain: MQITPIADATFGATVTGLRLATLDDAGFARLHAAWLQHALLVFPGQFLTNAEQIGFAKRFGPIERIGGGDIVAISNVKADGTVRQHSPAEWDDMMKVIVGNMAWHADSTYMPVMAQGAVFSAEVVPPTGGRTCFADMRAAYDALDDATRALVHQRSARHSLVYSQSKLGHVQQAGSAYVGYGMDTTATPLRPLVKRHPETGRLSLLIGRHAHAIPGLEEAESERFLEDLVAWACQPPRVVAHHWTAGDVVLWDNRCLLHRAEPWDFTLPRVMWHSRLAGHPETEAAPLV
modifications: Synthetic polypeptide, QYD42, D42
- Chromogenic reaction of degrading herbicides in bacteria: Triclopyr [1]: Yes
- Chromogenic reaction of degrading herbicides in bacteria: Triclopyr ([1]; listed as D42): slight degradation
- Resistance of T1 transgenic soybean to 2,4-D (spray) (soybean William82): no phytotoxicity; also recorded: remains normal
- 2,4-D resistance of T1 generation transgenic seedlings (seminal root growth) (Arabidopsis thaliana): showing tolerance to 2,4-D
